Measurements as given in patent US20230060388A1 (SHANGHAI HENLIUS BIOTECH, published 2023).
Numbering of substitutions follows the chain as printed. Values belong to the binder of their own block, whether it stands above or below them.

Tests used:
[1] = biological target: T1, recombinant human TIGIT extracellular domain (ECD) (human, UniProt Q495A1 22-138); assay: ELISA, VHH supernatant on h-TIGIT ECD coated plates
T1 construct: also called h-TIGIT ECD; recombinant human TIGIT ECD
T1 sequence: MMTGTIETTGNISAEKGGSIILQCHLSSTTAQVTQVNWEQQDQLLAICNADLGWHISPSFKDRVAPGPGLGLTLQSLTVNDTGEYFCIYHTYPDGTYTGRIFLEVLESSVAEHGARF
Method: The VHH antibody genes were amplified by PCR under protocols know in the art, purified by DNA agarose gel, constructed into a phagemid vector pADL-23c (Antibody Design Labs) and transformed to TG1 electrocompetent cells (from Lucigen). Transformed TG1 cells were cultured in Y2T medium. […] Phages in supernatants of culture were harvested by centrifugation, and panning of binders to human-TIGIT (h-TIGIT) or cynomolgus-TIGIT (cyno-TIGIT) antigen was performed using streptavidin-coupled Dynabeads coated with biotinylated h-TIGIT or cyno-TIGIT ECD. After 3 rounds of panning, binders of h-TIGIT or cyno-TIGIT were eluted, which were used to infect SS320 cells. Colonies of SS320 cells were picked and cultured in Y2T medium, and IPTG was added for secretion of VHH antibodies. Supernatants with VHH antibodies were screened by ELISA assays using h-TIGIT ECD coated plates. Positive h-TIGIT binders were picked for sequencing. 29 clones with different sequences were selected. Binding ability of VHH antibodies on cyno-TIGIT was also examined by ELISA. The top 21 binders and their CDRs and VHs are shown in the Sequence Table (SEQ ID NOS: 1-84).

[2] = biological target: T1, recombinant human TIGIT extracellular …; assay: blocking ELISA, competitor PVR
Method: The effects of VHH antibody clones on blocking Poliovirus Receptor (PVR, a.k.a. CD155) binding to TIGIT were also determined using blocking ELISA assay.

[3] = biological target: T2, human TIGIT expressed on cells (stably transfected Jurkat cells) (human, UniProt Q495A1 22-244); assay: whole cell binding to h-TIGIT stable cells, EC50 plotted against the blocking ELISA IC50
T2 construct: Also used here for TIGIT on primary T cells in the MLR; also called h-TIGIT; T cell immunoreceptor with Ig and ITIM domains
T2 sequence: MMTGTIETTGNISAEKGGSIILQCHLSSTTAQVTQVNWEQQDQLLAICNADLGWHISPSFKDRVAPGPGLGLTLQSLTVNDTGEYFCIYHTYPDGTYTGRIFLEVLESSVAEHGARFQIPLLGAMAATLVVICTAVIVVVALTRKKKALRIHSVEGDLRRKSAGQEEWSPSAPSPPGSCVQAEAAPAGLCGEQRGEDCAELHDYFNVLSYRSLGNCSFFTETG

[4] = biological target: T1, recombinant human TIGIT extracellular …; assay: PVR blocking ELISA (blocked ligand: PVR), IC50 plotted against the whole cell binding EC50

B1: 4C5 VHH (VHH)
VHH: QVQLVDSGGGLVQAGGSLRLSCAVSGRSVSTYFVGWFRQAPGKEREFVAAIDRGSTVTRYDDSVKGRFTISRDNAKDTVYLQMNSLKPEDTAVYYCAAKAITRNFIATNDYDYWGQGTQVTVSS
notes: VHH in E. coli supernatant
binding result [1]: binds

B2: 4H6 VHH (VHH)
VHH: QVQLVESGGGLATAGASLILSCAASGTIFRLNRMGWFRQAPGKERERVAATIWSGRRTHYADSVKGRFTISTDNAKKTVYLRMSSLKPEDTAVYYCNYRRITPWEASGNYWGQGTQVTVSS
notes: VHH in E. coli supernatant
binding result [1]: binds

B3: 4B5 VHH (VHH)
VHH: QVKLEESGGRSVLAGGSLRLRCAGTPRTFSTFHIGWFRQAPGKEREFVAAFNWSGGRTYYADSVKGRFTISRNNGKNMVYLQMTSLTPEDTGLYYCAAARDRGLHDGTTSDSYLEGSHEYEYWGQGTQVTVSS
notes: VHH in E. coli supernatant
binding result [1]: binds

B4: 4C6 VHH (VHH)
VHH: QVQLVESGGGLVQAGGSLRLACAASGRTFSSYPMGWFRQGPGKERESVAAISSDGRFTYYAASVKGRFTISKDNAKSAAFLQMNSLKPEDTAVYRCAVDPTGWGTIEADFRSWGQGTQVTVSS
notes: VHH in E. coli supernatant
binding result [1]: binds

B5: 4H9 VHH (VHH)
VHH: QVQLVESGGGAVQAGGSLRLSCTASGPIARSRSTGMGWFRQGPGKERESVAAISSDGRFTYYAASVKGRFTISKDNAKSAAFLQMNSLKPEDTAVYYCAARDSGSGYYSRAQWYDYWGQGTQVTVSS
notes: VHH in E. coli supernatant
binding result [1]: binds

B6: 3G6 VHH (VHH)
VHH: QVQLVESGGGLVQAGGSLSLSCAASGSIFGISVMGWYRQAPGEQRDLVATLTRAGLTTYGDSVKGRFSISRDSAKNTVYLQMNNLKPEDTAVYYCHANIMESAASTFGRYWGQGTQVTVSS
notes: VHH in E. coli supernatant
inhibition of PVR binding to h-TIGIT [2]: > 90%

B7: 12H7 VHH (VHH)
VHH: QVQLVDSGGGLVQAGGSLRLSCKVSGNFLSVSDMSWYRQAPGMERDVVATVTEHGRTTYTDSVKGRFTISRDNAEHTTYLEMNNLKPEDTAVYFCKASDVFTDAGAHEAVLIRDYWGQGTQVTVSS
notes: VHH in E. coli supernatant
binding result [1]: binds

B8: 3H7 VHH (VHH)
VHH: QVKLEESGGGLVQAGGSLRLSCAASGSILSAGVMRWYRQAPGKQRELVASIALDGSTGYYIDSVKGRFTISRDNAKNIVYLDMRSLEPADTAVYLCNANIRTDMRSAPFDHWGHGTQVTVSS
notes: VHH in E. coli supernatant
binding result [1]: binds

B9: 13H11 VHH (VHH)
VHH: QVQLVESGGGLVQAGGSLRLSCAASGLTFSMYAMGWFRQGPGKERESVAAISSDGRFTYYAASVKGRFTISKDNAKSAAFLQMNSLKPEDTAVYYCAARDSGSGYYSRAQWYDYWGQGTQVTVSS
notes: VHH in E. coli supernatant
inhibition of PVR binding to h-TIGIT [2]: > 90%

B10: 1G1 VHH (VHH)
VHH: B9 VHH with G16D, A23V, L27P, T28S, M31S, A33P, Q120L
notes: VHH in E. coli supernatant
inhibition of PVR binding to h-TIGIT [2]: > 90%

B11: 2B7 VHH (VHH)
VHH: B9 VHH with S21A, L27R, M31S, A33P
notes: VHH in E. coli supernatant
inhibition of PVR binding to h-TIGIT [2]: > 90%

B28: 2B10 VHH (VHH)
VHH: QVKLEESGGGLVQTGDSLRLSCAASSRIFRRYAMGWFRQAPGKEREFVAAITWSGASTTYTDSVKGRFTISRDSAENTTYLQMTSLRPEDTAVYYCAADPWGSVIVGTAEYEYWGQGTLVTVSS
notes: VHH in E. coli supernatant
inhibition of PVR binding to h-TIGIT [2]: > 90%

B29: 1C12 VHH (VHH)
VHH: QVQLVESGGGLVQTGDSLRLSCAASSRIFSRYGMGWFRQAPGKEREFVAAISWNGASTTYTDSVKGRFTISRDSAENTTYLQINSLRPEDTAVYYCAADPWGAVKLGTAEYEYWGQGTQVTVSS
notes: VHH in E. coli supernatant
inhibition of PVR binding to h-TIGIT [2]: > 90%

B30: 4A11 VHH (VHH)
VHH: QVKLEESGGGEAQPGGSLRLSCTASGRPFSNYTMGWFRRAPGKEREFVGLAWPSPSTYVVDSVKGRFTISRDNAKNTIYLQMNSLKPEDTAIYYCAADYKSLTQSWLNAALDYWGQGTQVTVSS
notes: VHH in E. coli supernatant
binding result [1]: binds

B31: 3G7 VHH (VHH)
VHH: B30 VHH with K3Q, E5V, E11L, A12V, P14A, G16D, T23E, P28T, F29L, N31T
notes: VHH in E. coli supernatant
inhibition of PVR binding to h-TIGIT [2]: > 90%

Second part, the binder after the results:

binding result [1]: binds
B12: 4E5 VHH (VHH)
VHH: QVQLVDSGGGVVEVGASLTLSCETSGLTSSDIAVGWFRQGPGKERESVAAISSDGRFTYYAASVKGRFTISKDNAKSAAFLQMNSLKPEDTAVYYCAARDSGSGYYSRAQWYDYWGQGTQVTVSS
notes: VHH in E. coli supernatant

binding result [3]: binds
binding result [4]: binds
B13: 1A10 VHH (VHH)
VHH: QVQLVESGGGVVQPGRSLRLSCAASGNSFSSYPMGWFRQAPGKERESVAAISSDGRFSYYADSVKGRFTISRDNSKNTLYLQMNSLRAEDTAVYYCACRDSGSGYYSRAQWYDYWGQGTLVTVSS

binding result [3]: binds
binding result [4]: binds
B14: 5G10 VHH (VHH)
VHH: B13 VHH with N27P, S28R, S58T, C98A, Y114G

binding result [3]: binds
binding result [4]: binds
B15: 5E8 VHH (VHH)
VHH: B13 VHH with N27P, I51Q, S58T, C98A

binding result [3]: binds
binding result [4]: binds
B16: 6E9 VHH (VHH)
VHH: B13 VHH with N27P, F29R, R56K, S58T, C98A, Q110N

binding result [3]: binds
binding result [4]: binds
B17: 1C7 VHH (VHH)
VHH: B13 VHH with N27P, D54R, S58T, C98A, D100G

binding result [3]: binds
binding result [4]: binds
B18: 6D8 VHH (VHH)
VHH: B13 VHH with N27P, Y32K, I51R, S58T, C98A, Y105R

binding result [3]: binds
binding result [4]: binds
B19: 2D5 VHH (VHH)
VHH: B13 VHH with N27P, Y32S, S53W, S58T, C98A, D113V

binding result [3]: binds
binding result [4]: binds
B20: 6B11 VHH (VHH)
VHH: B13 VHH with N27P, S30P, D54R, S58T, C98A, A109L

binding result [3]: binds
binding result [4]: binds
B21: 2C5 VHH (VHH)
VHH: B13 VHH with N27P, S31T, D54Q, S58T, C98A

binding result [3]: binds
binding result [4]: binds
B22: 5B5 VHH (VHH)
VHH: B13 VHH with N27P, G55T, S58T, C98A, Y114R

binding result [3]: binds
binding result [4]: binds
B23: 1D11 VHH (VHH)
VHH: B13 VHH with N27P, Y32S, D54M, S58T, C98A

binding result [3]: binds
binding result [4]: binds
B24: 2A5 VHH (VHH)
VHH: B13 VHH with N27P, D54V, S58T, C98A, A109W

binding result [3]: binds
binding result [4]: binds
B25: 6D12 VHH (VHH)
VHH: B13 VHH with N27P, S31T, R56V, S58T, C98A, A109E

binding result [3]: binds
binding result [4]: binds
B26: 2A6 VHH (VHH)
VHH: B13 VHH with N27P, S31L, G55R, S58T, C98A

binding result [3]: binds
binding result [4]: binds
B27: 7B11 VHH (VHH)
VHH: B13 VHH with N27P, S30L, S31I, S58W, C98A, A109V

binding result [1]: binds
B32: 4D11 VHH (VHH)
VHH: QVQLQESGGGLVQPGGSLRLSCAASGSISSINAMGWYRLAPGKHREFVADITNSGSTNYAASVKGRFNISRDNAKDTVYLQMNSLKFEDTAVYYCTARRSTWYISSGRGTQVTVSS
notes: VHH in E. coli supernatant
